Assay results: US20210380710A1

How the values were obtained:
[1] = molecular target: human CD20 on the cell surface (Raji, Ramos, Namalwa cells) (human) (UniProt P11836); assay: cell-based or functional assay
[2] = molecular target: human CD20 on the cell surface (Raji, Ramos, Namalwa cells) (human) (UniProt P11836); assay: flow cytometry on Raji cells
[3] = molecular target: human CD3 on the cell surface (Jurkat cells) (human) (UniProt P07766); assay: flow cytometry on Jurkat cells
[4] = molecular target: human CD20 on the cell surface (Raji, Ramos, Namalwa cells) (human) (UniProt P11836); assay: FACS affinity on Ramos cells, FITC bead quantitation
[5] = molecular target: human CD3 on the cell surface (Jurkat cells) (human) (UniProt P07766); assay: FACS affinity on Jurkat cells, FITC bead quantitation; parameters: Bmax: unit not given here
[6] = molecular target: human CD20 on the cell surface (Raji, Ramos, Namalwa cells) (human) (UniProt P11836); assay: flow cytometry on Raji cells, secondary antibody alone
[7] = molecular target: human CD20 on the cell surface (Raji, Ramos, Namalwa cells) (human) (UniProt P11836); assay: flow cytometry on Ramos cells, secondary antibody alone
[8] = molecular target: human CD3 on the cell surface (Jurkat cells) (human) (UniProt P07766); assay: flow cytometry on Jurkat cells, secondary antibody alone
[9] = molecular target: human CD3 on the cell surface (Jurkat cells) (human) (UniProt P07766); assay: flow cytometry on Hut78 cells (target on Hut78 not given), secondary antibody alone
[10] = molecular target: human CD20 on the cell surface (Raji, Ramos, Namalwa cells) (human) (UniProt P11836); assay: flow cytometry on Ramos cells, antibody 10 ug/ml
[11] = molecular target: human CD3 on the cell surface (Jurkat cells) (human) (UniProt P07766); assay: flow cytometry on Jurkat cells, antibody 10 ug/ml
[12] = molecular target: human CD3 on the cell surface (Jurkat cells) (human) (UniProt P07766); assay: flow cytometry on Hut78 cells (target on Hut78 not given), antibody 10 ug/ml
[13] = molecular target: human CD20 on the cell surface (Raji, Ramos, Namalwa cells) (human) (UniProt P11836); assay: flow cytometry on Raji cells, antibody 10 ug/ml
[14] = molecular target: PD-1.his (Homo sapiens (Human)) (UniProt Q15116); assay: ELISA, antigen coated at 2 ug/mL, antibody 10 ug/ml; * specific binding
UniProt Q15116, sequence (Q15116 25-170 limits assumed): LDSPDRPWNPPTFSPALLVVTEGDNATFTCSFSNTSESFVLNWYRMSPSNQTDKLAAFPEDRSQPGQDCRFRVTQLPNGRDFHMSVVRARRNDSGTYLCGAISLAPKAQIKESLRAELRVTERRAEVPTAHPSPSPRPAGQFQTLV

UniProt P11836, sequence (P11836 whole entry): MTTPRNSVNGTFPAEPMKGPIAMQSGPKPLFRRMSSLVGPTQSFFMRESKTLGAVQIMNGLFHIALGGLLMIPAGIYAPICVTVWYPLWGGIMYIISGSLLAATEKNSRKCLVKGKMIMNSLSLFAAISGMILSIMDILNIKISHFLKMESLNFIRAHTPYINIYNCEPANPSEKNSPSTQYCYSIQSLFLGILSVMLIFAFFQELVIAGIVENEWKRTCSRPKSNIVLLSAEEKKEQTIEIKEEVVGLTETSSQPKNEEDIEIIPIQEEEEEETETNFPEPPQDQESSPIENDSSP
UniProt P07766, sequence (P07766 23-207, chain 1 of 3): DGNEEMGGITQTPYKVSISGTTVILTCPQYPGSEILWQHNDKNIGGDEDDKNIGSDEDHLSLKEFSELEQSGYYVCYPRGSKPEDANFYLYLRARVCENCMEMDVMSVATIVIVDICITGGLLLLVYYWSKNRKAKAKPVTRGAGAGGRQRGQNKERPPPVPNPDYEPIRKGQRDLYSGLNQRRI
UniProt P07766, sequence (P04234 22-171, chain 2 of 3, further chain): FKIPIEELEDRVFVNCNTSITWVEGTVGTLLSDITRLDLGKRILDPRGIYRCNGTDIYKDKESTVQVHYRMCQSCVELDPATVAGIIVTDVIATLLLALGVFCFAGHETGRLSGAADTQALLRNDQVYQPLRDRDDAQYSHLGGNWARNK
UniProt P07766, sequence (P09693 23-182, chain 3 of 3, further chain): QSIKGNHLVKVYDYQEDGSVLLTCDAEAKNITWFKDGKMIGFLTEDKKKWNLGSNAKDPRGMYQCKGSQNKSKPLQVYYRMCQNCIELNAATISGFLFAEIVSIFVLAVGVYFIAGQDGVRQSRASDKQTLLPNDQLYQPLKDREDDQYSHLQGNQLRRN

Substance: BMK4 (REGN1979) (bispecific antibody)
- EC50 of T cell activation (CD25 expression), CD4+ cells, in the presence of Raji cells [1]: 6 pM
- EC50 of T cell activation (CD25 expression), CD8+ cells, in the presence of Raji cells [1]: 18.3 pM
- EC50 of bispecific antibody mediated cytotoxicity, NAMALWA, 4 hours FACS based cytotoxicity assay with CD8+ T cells [1]: 31.8 pM
- EC50 of bispecific antibody mediated cytotoxicity, NAMALWA, two hour calcein release assay with CD8+ T cells [1]: 26 pM
- EC50 of bispecific antibody mediated cytotoxicity, Raji, 4 hours FACS based cytotoxicity assay with CD8+ T cells [1]: 3.12 pM
- EC50 of bispecific antibody mediated cytotoxicity, Raji, two hour calcein release assay with CD8+ T cells [1]: 2.69 pM
- EC50 of bispecific antibody mediated cytotoxicity, Ramos, two hour calcein release assay with CD8+ T cells [1]: 1.49 pM
- EC50 [2]: 41100 pM
- EC50 [3]: 8800 pM
- Bmax [4]: 6.8e-10
- Kd [4]: 67000 pM
- Bmax [5]: 1.1e-10
- Kd [5]: 30000 pM

Substance: goat anti-human IgG Fc-PE (Jackson, 109-115-098) (antibody)
- FACS MFI [6]: 67
- FACS MFI [7]: 65
- FACS MFI [8]: 21
- FACS MFI [9]: 28

Substance: Human IgG4L control (antibody)
- FACS MFI [10]: 63
- FACS MFI [11]: 22
- FACS MFI [12]: 38

Substance: Human IgG4K control (antibody)
- FACS MFI [13]: 92
- FACS MFI [10]: 68
- FACS MFI [11]: 25
- absorbance at 450 nm [14]: 3.87
- FACS MFI [12]: 61
